In patent US20100255578A1:

Assays:
[1] = target: CH-296, a polypeptide comprising a cell binding domain, a heparin binding domain and a CS-1 domain of fibronectin (Homo sapiens (Human)) (UniProt P02751); test: ELISA; CH-296 coated at 25 ug/mL; HRP-labeled FNH3-8, ABTS; blank subtracted
[2] = target: H296-H271; test: ELISA; H296-H271 coated at 7 ug/mL; HRP-labeled FNH3-8, ABTS; blank subtracted
[3] = target: H296-H271; test: ELISA; H296-H271 coated at 9 ug/mL; HRP-labeled FNH3-8, ABTS; blank subtracted
[4] = target: H271-H296; test: ELISA; H271-H296 coated at 14 ug/mL; HRP-labeled FNH3-8, ABTS; blank subtracted
[5] = target: H271-H296; test: ELISA; H271-H296 coated at 18 ug/mL; HRP-labeled FNH3-8, ABTS; blank subtracted
[6] = target: H296-H271; test: ELISA; H296-H271 coated at 11 ug/mL; HRP-labeled FNH3-8, ABTS; blank subtracted
[7] = target: H296-H271; test: ELISA; H296-H271 coated at 15 ug/mL; HRP-labeled FNH3-8, ABTS; blank subtracted
[8] = target: H296-H296 (modified fibronectin fragment in which two H-296's are connected); test: ELISA as in Example 34; H296-H296 coated at 12.5 ug/mL in PBS; HRP-labeled FNH3-8
[9] = target: H296-H296-HT; test: ELISA; H296-H296-HT coated at 1 ug/mL; HRP-labeled FNH3-8, ABTS; blank subtracted
[10] = target: H296-H296-HT; test: ELISA; H296-H296-HT coated at 2 ug/mL; HRP-labeled FNH3-8, ABTS; blank subtracted
[11] = target: H296-H296-HT; test: ELISA; H296-H296-HT coated at 5 ug/mL; HRP-labeled FNH3-8, ABTS; blank subtracted
[12] = target: H296-H296 (modified fibronectin fragment in which two H-296's are connected); test: ELISA as in Example 34; H296-H296 coated at 1.563 ug/mL in PBS; HRP-labeled FNH3-8
[13] = target: H296-H296-HT; test: ELISA; H296-H296-HT coated at 25 ug/mL; HRP-labeled FNH3-8, ABTS; blank subtracted
[14] = target: H296-H296-HT; test: ELISA; H296-H296-HT coated at 0.5 ug/mL; HRP-labeled FNH3-8, ABTS; blank subtracted
[15] = target: H296-H296-H296-HT; test: ELISA; H296-H296-H296-HT coated at 1 ug/mL; HRP-labeled FNH3-8, ABTS; blank subtracted
[16] = target: H296-H296-H296-HT; test: ELISA; H296-H296-H296-HT coated at 4 ug/mL; HRP-labeled FNH3-8, ABTS; blank subtracted
[17] = target: H296-H296-H296-HT; test: ELISA; H296-H296-H296-HT coated at 5 ug/mL; HRP-labeled FNH3-8, ABTS; blank subtracted
[18] = target: H296-H296-H296-HT; test: ELISA; H296-H296-H296-HT coated at 25 ug/mL; HRP-labeled FNH3-8, ABTS; blank subtracted
[19] = target: H-296, a polypeptide comprising a heparin binding domain and a CS-1 domain of fibronectin (Homo sapiens (Human)) (UniProt P02751); test: ELISA; H-296 coated at 25 ug/mL in 0.2 M acetate buffer pH 3.8; HRP-labeled FNH3-8, ABTS
[20] = target: H-296, a polypeptide comprising a heparin binding domain and a CS-1 domain of fibronectin (Homo sapiens (Human)) (UniProt P02751); test: ELISA; H-296 coated at 25 ug/mL in 0.2 M acetate buffer pH 5.0; HRP-labeled FNH3-8, ABTS
[21] = target: H-296, a polypeptide comprising a heparin binding domain and a CS-1 domain of fibronectin (Homo sapiens (Human)) (UniProt P02751); test: ELISA; H-296 coated at 25 ug/mL in 0.2 M acetate buffer pH 5.6; HRP-labeled FNH3-8, ABTS
[22] = target: H-296, a polypeptide comprising a heparin binding domain and a CS-1 domain of fibronectin (Homo sapiens (Human)) (UniProt P02751); test: ELISA; H-296 coated at 50 ug/mL in 0.2 M acetate buffer pH 4.4; HRP-labeled FNH3-8, ABTS
[23] = target: H-296, a polypeptide comprising a heparin binding domain and a CS-1 domain of fibronectin (Homo sapiens (Human)) (UniProt P02751); test: ELISA; H-296 coated at 50 ug/mL in 0.2 M acetate buffer pH 5.6; HRP-labeled FNH3-8, ABTS
[24] = target: H-296, a polypeptide comprising a heparin binding domain and a CS-1 domain of fibronectin (Homo sapiens (Human)) (UniProt P02751); test: ELISA; H-296 coated at 25 ug/mL in 0.2 M phosphate buffer pH 6.2; HRP-labeled FNH3-8, ABTS
[25] = target: H-296, a polypeptide comprising a heparin binding domain and a CS-1 domain of fibronectin (Homo sapiens (Human)) (UniProt P02751); test: ELISA; H-296 coated at 25 ug/mL in 0.2 M phosphate buffer pH 6.8; HRP-labeled FNH3-8, ABTS
[26] = target: H-296, a polypeptide comprising a heparin binding domain and a CS-1 domain of fibronectin (Homo sapiens (Human)) (UniProt P02751); test: ELISA; H-296 coated at 25 ug/mL in 0.2 M phosphate buffer pH 7.4; HRP-labeled FNH3-8, ABTS
[27] = target: H-296, a polypeptide comprising a heparin binding domain and a CS-1 domain of fibronectin (Homo sapiens (Human)) (UniProt P02751); test: ELISA as in Example 34; H-296 coated at 200 ug/mL in pH 5.6 acetate buffer; HRP-labeled FNH3-8
[28] = target: H-296, a polypeptide comprising a heparin binding domain and a CS-1 domain of fibronectin (Homo sapiens (Human)) (UniProt P02751); test: ELISA as in Example 34; H-296 coated at 6.25 ug/mL in pH 5.6 acetate buffer; HRP-labeled FNH3-8

H296-H296-HT, sequence (chain, as listed by the source limits assumed): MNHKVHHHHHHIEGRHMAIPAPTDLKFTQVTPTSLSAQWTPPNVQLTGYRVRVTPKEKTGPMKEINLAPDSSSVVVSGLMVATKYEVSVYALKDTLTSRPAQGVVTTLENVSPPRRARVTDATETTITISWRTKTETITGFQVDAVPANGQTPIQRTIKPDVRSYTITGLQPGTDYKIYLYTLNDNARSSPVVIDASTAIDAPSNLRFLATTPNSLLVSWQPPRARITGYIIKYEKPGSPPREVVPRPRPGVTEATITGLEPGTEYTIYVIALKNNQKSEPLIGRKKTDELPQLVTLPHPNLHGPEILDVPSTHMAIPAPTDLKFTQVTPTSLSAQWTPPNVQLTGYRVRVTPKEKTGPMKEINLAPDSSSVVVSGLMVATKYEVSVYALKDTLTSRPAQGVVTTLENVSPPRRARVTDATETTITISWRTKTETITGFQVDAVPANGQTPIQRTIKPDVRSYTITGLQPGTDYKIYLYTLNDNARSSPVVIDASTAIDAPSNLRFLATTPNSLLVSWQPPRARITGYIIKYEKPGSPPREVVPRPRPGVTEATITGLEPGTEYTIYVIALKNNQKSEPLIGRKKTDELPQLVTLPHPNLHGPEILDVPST
H296-H296-H296-HT, sequence (chain, as listed by the source limits assumed): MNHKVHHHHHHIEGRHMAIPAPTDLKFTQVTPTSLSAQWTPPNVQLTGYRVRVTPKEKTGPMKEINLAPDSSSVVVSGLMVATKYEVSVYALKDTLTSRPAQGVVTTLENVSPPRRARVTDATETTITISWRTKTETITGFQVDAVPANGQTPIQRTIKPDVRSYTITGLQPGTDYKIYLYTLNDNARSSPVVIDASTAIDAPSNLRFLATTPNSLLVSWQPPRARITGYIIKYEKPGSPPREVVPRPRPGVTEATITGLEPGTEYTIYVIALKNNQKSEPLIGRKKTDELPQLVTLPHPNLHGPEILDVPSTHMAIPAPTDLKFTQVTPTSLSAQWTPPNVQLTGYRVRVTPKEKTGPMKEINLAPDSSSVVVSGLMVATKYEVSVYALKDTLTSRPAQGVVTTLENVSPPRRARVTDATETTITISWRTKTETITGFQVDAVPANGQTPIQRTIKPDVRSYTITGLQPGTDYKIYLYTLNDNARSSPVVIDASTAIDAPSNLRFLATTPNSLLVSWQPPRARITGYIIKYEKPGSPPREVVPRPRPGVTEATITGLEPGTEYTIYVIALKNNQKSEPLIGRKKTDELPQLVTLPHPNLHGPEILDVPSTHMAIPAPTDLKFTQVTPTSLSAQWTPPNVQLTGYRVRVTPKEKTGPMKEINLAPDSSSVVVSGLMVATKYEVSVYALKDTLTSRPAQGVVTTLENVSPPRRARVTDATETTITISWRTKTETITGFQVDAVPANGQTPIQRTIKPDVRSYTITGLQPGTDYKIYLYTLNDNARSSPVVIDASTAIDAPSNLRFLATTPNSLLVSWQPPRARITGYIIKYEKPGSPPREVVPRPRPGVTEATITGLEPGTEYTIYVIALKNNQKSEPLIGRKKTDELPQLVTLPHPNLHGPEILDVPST
H296-H271, sequence (chain, as listed by the source limits assumed): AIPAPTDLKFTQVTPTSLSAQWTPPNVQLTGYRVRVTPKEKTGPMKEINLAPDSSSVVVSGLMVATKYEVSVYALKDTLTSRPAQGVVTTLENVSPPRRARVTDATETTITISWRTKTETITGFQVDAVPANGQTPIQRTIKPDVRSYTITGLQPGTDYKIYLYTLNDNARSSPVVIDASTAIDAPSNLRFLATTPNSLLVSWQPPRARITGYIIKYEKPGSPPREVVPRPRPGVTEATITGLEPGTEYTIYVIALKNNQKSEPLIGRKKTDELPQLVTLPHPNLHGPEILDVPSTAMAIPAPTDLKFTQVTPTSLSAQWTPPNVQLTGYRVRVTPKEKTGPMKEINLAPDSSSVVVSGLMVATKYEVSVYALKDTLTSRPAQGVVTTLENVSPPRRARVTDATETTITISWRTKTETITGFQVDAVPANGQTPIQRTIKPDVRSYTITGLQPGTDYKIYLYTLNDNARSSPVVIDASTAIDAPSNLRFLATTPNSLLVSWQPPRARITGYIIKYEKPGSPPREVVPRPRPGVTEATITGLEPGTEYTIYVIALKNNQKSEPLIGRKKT
H271-H296, sequence (chain, as listed by the source limits assumed): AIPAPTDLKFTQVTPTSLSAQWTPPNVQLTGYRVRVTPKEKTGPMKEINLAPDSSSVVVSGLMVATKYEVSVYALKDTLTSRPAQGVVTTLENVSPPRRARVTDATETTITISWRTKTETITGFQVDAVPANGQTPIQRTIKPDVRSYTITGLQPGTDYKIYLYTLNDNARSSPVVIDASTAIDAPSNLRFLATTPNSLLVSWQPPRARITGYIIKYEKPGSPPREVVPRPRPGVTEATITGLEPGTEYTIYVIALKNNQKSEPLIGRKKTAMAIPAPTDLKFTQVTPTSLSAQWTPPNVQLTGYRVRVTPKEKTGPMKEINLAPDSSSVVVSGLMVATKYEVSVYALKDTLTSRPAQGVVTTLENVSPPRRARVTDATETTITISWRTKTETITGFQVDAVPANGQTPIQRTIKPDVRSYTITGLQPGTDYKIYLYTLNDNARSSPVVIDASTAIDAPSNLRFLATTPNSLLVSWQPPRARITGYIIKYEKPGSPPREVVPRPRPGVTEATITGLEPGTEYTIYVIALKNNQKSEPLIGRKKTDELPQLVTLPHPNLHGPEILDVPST

405 nm (Found Value - Blank) [1]: 0.564
405 nm (Found Value - Blank) [2]: 0.518
405 nm (Found Value - Blank) [3]: 0.56
405 nm (Found Value - Blank) [4]: 0.605
405 nm (Found Value - Blank) [5]: 0.61
405 nm (Found Value - Blank) [6]: 0.561
405 nm (Found Value - Blank) [7]: 0.635
absorbance at 405 nm [8]: 1.73
405 nm (Found Value - Blank) [9]: 0.186
405 nm (Found Value - Blank) [10]: 0.54
405 nm (Found Value - Blank) [11]: 0.878
absorbance at 405 nm [12]: 0.732
405 nm (Found Value - Blank) [13]: 0.965
405 nm (Found Value - Blank) [14]: 0.033
405 nm (Found Value - Blank) [15]: 0.261
405 nm (Found Value - Blank) [16]: 0.81
405 nm (Found Value - Blank) [17]: 0.87
405 nm (Found Value - Blank) [18]: 0.991
absorbance at 405 nm [19]: 0.243
absorbance at 405 nm [20]: 0.392
absorbance at 405 nm [21]: 0.475
absorbance at 405 nm [22]: 0.379
absorbance at 405 nm [23]: 0.567
absorbance at 405 nm [24]: 0.131
absorbance at 405 nm [25]: 0.075
absorbance at 405 nm [26]: 0.08
absorbance at 405 nm [27]: 0.964
absorbance at 405 nm [28]: 0.221
Substance: FNH3-8 antibody (manufactured by TAKARA BIO INC.) labeled with HRP
